The target of this assay is EDE1-C10 IgG1. The assay can be described thus: shotgun alanine-scanning mutagenesis library binding screen. The settings on record: read off a plot.

Consider eleven substances from publication PMC10586629.

Consider “wild-type DENV2 16681 prM/E expressed in HEK-293T cells T155A”, for which the percent of parent amounted to 81 % WT.
Next, “wild-type DENV2 16681 prM/E expressed in HEK-293T cells I113A”: 73 % WT; “wild-type DENV2 16681 prM/E expressed in HEK-293T cells L82A”: 57 % WT; “wild-type DENV2 16681 prM/E expressed in HEK-293T cells N153A”: 61 % WT.
“wild-type DENV2 16681 prM/E expressed in HEK-293T cells V97A”: the percent of parent is 74 % WT.
For “wild-type DENV2 16681 prM/E expressed in HEK-293T cells M6A”, the percent of parent turned out to be 82 % WT.
As for “wild-type DENV2 16681 prM/E expressed in HEK-293T cells Q77A”, the percent of parent was found to be 72 % WT.
For “wild-type DENV2 16681 prM/E expressed in HEK-293T cells G78A” the value was 44 % WT.
Next, “wild-type DENV2 16681 prM/E expressed in HEK-293T cells V309A”: 57 % WT.
For “wild-type DENV2 16681 prM/E expressed in HEK-293T cells V308A” the value was 53 % WT; for “wild-type DENV2 16681 prM/E expressed in HEK-293T cells K310A”, -4 % WT.
